Article PMC4931921

T1: IFIT3 (Homo sapiens, UniProt O14879 1-490)
T1 sequence: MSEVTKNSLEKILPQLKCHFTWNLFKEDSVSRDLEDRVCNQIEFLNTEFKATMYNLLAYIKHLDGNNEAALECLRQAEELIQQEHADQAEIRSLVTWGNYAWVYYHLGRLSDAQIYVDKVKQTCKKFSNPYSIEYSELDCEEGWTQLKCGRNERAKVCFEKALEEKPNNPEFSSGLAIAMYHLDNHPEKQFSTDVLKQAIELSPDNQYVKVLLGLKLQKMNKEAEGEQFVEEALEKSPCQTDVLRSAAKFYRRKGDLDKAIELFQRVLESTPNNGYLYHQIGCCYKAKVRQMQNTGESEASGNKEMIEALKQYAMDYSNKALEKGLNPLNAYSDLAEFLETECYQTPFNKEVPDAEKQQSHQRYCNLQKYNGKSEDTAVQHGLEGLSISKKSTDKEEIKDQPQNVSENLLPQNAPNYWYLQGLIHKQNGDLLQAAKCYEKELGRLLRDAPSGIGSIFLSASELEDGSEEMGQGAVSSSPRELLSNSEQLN

T2: IFIT5 (Homo sapiens, UniProt Q13325 1-482)
T2 sequence: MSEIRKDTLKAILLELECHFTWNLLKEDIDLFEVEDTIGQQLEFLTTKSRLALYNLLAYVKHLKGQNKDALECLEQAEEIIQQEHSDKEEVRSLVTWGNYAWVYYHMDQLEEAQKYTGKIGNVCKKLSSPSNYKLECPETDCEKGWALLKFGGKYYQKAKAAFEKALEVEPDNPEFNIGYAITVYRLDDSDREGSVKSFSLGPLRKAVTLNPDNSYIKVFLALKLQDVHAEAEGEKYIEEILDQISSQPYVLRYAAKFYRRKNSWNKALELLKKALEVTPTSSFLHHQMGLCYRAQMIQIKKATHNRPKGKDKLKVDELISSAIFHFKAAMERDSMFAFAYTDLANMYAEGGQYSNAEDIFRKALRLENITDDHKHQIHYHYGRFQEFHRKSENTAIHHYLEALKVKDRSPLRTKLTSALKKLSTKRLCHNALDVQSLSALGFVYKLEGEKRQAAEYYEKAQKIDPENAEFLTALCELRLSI

T3: IFIT1 (Homo sapiens, UniProt P09914 1-478)
T3 sequence: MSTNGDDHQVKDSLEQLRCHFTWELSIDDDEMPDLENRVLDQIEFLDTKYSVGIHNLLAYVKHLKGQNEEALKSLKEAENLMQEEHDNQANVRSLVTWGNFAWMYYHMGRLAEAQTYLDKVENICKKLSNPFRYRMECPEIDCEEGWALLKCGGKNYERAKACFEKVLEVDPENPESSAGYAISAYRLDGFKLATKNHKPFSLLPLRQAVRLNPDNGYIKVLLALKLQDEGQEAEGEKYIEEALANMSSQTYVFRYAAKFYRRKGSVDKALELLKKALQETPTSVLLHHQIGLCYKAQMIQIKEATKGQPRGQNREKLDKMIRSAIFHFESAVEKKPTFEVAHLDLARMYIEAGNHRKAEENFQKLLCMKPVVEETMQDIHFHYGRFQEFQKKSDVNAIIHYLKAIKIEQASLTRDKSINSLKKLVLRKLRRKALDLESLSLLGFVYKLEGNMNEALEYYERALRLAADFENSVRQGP

B1: PPP-3nt (dsRNA)
RNA 1: GGGAGAGAGAGAGAGAGAGUAAGGGCGUCGUCGCCCCGAGAAUU
RNA 2: ACUCUCUCUCUCUCUCU
modifications: 5'-triphosphate on strand 1
B2: PPP-5nt (dsRNA)
RNA 1: B1 RNA 1
RNA 2: ACUCUCUCUCUCUCU
modifications: 5'-triphosphate on strand 1

What was measured:
IFIT3 = molecular target: T1, IFIT3; assay: EMSA
IFIT5 [1] = molecular target: T2, IFIT5; assay: EMSA
IFIT1 = molecular target: T3, IFIT1; assay: EMSA
IFIT5 [2] = molecular target: T2, IFIT5; assay: crystal structure 1.86 A
IFIT5 [3] = molecular target: T2, IFIT5; assay: crystal structure 2.0 A
IFIT5 [4] = molecular target: T2, IFIT5; assay: crystal structure 2.5 A

Binder | binding result (IFIT3) | binding result (IFIT5 [1]) | binding result (IFIT1) | other results
B1 | no binding | binds |  | 
GGGAGAGAGAGAGAGAGAGUAAGGGCGUCGUCGCCCCGAGAAUU (ssRNA, 5'-triphosphate) [PPP-ss (44nt PPP-ssRNA)] | no binding | binds | binds | 
B2 |  |  | binds | 
CCCC (ssRNA, 5'-triphosphate) [PPP-oligo-C] |  |  |  | binding result (IFIT5 [2]): binds
UUU (ssRNA, 5'-triphosphate) [PPP-oligo-U] |  |  |  | binding result (IFIT5 [3]): binds
AAAA (ssRNA, 5'-triphosphate) [PPP-oligo-A] |  |  |  | binding result (IFIT5 [4]): binds
